Data as given in paper PMC10965912, “FliH and FliI help FlhA bring strict order to flagellar protein export in Salmonella” (Communications Biology, 2024).

T1: FlgK (Salmonella enterica serovar Typhimurium, UniProt P0A1J5 1-553)
T1 construct: FlgK, filament-type export substrate, Salmonella enterica serovar Typhimurium (plasmid pMKGK2, pTrc99A); source: E. coli BL21 Star (DE3), purified (Q-Sepharose anion exchange)
T1 sequence: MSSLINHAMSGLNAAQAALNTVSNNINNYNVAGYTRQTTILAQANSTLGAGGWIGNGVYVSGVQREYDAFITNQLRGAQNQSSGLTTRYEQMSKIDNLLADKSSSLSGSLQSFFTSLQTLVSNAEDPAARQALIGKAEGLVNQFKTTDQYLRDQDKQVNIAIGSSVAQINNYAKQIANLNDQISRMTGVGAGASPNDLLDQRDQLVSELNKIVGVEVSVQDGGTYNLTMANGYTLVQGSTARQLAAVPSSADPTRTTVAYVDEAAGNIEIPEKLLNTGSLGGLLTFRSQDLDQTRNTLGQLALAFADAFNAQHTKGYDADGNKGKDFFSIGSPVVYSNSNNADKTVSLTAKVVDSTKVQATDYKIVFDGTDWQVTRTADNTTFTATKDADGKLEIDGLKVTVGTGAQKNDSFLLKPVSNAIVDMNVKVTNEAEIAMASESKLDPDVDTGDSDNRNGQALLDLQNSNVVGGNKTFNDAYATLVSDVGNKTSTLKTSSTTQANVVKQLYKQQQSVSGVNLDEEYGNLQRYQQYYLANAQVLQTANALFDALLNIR

B1: GST-FlgN (natural protein)
chain: MTRLSEILDQMTTVLNDLKTVMDAEQQQLSVGQINGSQLQRITEEKSSLLATLDYLEQQRRLEQNAQRSANDDIAERWQAITEKTQHLRDLNQHNGWLLEGQIERNQQALEVLKPHQEPTLYGADGQTSVSHRGGKKISI
notes: FlgN, flagellar export chaperone, Salmonella enterica serovar Typhimurium (plasmid pMMGN101, pGEX-6p-1); source: Salmonella SJW1368, purified (glutathione Sepharose 4B)
B2: His-FlhAC with the Y369A/R370A/L371A/I372V (AAAV) mutation (domain or fragment)
chain: AGILIMVINVVGGLLVGVLQHGMSIGSAAESYTLLTIGDGLVAQIPALVISTAAGVIVTRVSTDQDVGEQMVGQLFSNPRVMLLAAAVLGLLGMVPGMPNLVFLLFTAALLGLAWWLRGREEKAPEEPQPVKMPENNSVVEATWNDVQLEDSLGMEVGAAAVPMVDFQQDGELLGRIRSIRKKFAQDMGFLPPVVHIRDNMDLQPARYRILMKGVEIGSGDAYPGRWLAINPGTAAGTLPGEKTVDPAFGLDAIWIESALKEQAQIQGFTVVEASTVVATHLNHLIGQFSAELFGRQEAQQLLDRVSQEMPKLTEDLVPGVVTLTTLHKVLQNLLAEKVPIRDMRTILETLAEHAPLQSDPHELTAVVRVALGRAITQQWFPGNEEVQVIGLDTALERLLLQALQGGGGLEPGLADRLLAQTQEALSRQEMLGAPPVLLVNHALRPLLSRFLRRSLPQLVVLSNLELSDNRHIRMTATIGGK
notes: Intragenic suppressor (A372V) of the AAAA mutant; also called FlhA_(C-AAAV); His-FlhA_(C-AAAV); source: E. coli BL21 Star (DE3), purified (Ni-NTA, SEC); not shown: His tag, N-terminal, kept

Key:
FlgK = target: T1, FlgK; experiment: pull-down; GST affinity chromatography: purified His-FlhAC mixed with purified GST-FlgN/FlgK complex or GST-FliJ, dialyzed overnight against PBS pH 7.4 at 4 °C, loaded on glutathione Sepharose 4B, eluted with 10 mM reduced glutathione; SDS-PAGE with CBB staining; conditions: both partners purified
[1] = target: the molecule itself; experiment: high-speed atomic force microscopy; ring formation of purified FlhAC monomer (2 μM) in 50 mM Tris-HCl pH 8.0, 100 mM NaCl placed on mica, room temperature; imaged in 10 mM Tris-HCl pH 6.8

Row | Binder | binding result (FlgK) | stoichiometry N [1]
1 | B1 | binds | 
2 | B2 |  | 9
